Measured values from the supplement of paper PMC10724198.
± gives the standard deviation of the averaged measurements.

Tests used:
[1] = test system: Saccharomyces cerevisiae; assay: protein stability index of tFT-peptide fusion (C-terminal peptide) (PSI (0-1 scale)); higher = more stable (slower turnover)
Experimental: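 MPS profiling in S. cerevisiae of the tFT-X12 degron library: putative degron peptides plus stable controls, 12 aa, fused to the C-terminus of a sfGFP-mCherry timer. Cells are FACS-sorted into 8 mCherry/sfGFP bins and deep-sequenced. PSI runs from 0 (unstable) to 1 (stable). Backgrounds are wild type, das1Δ and doa10Δ at 30 °C, and wild type, das1Δ, cdc34-1 and cdc53-1 at 37 °C; 2-3 technical replicates each.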

[2] = test system: Saccharomyces cerevisiae; assay: as above; details: genetic background: wild type; temperature: 30 C
[3] = genetic background: cdc34-1, temperature: 37 C
[4] = genetic background: cdc53-1, temperature: 37 C
[5] = genetic background: das1 deletion, temperature: 30 C
[6] = genetic background: das1 deletion, temperature: 37 C
[7] = genetic background: doa10 deletion, temperature: 30 C
[8] = genetic background: wild type, temperature: 30 C
[9] = genetic background: wild type, temperature: 37 C
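Note: PSI is a weighted mean of sequencing reads over stability bins, variants kept only with over 10 reads, mCherry proximal and sfGFP distal, peptide attached via GGGS linker.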

Row | Sequence | protein stability index [1, 3] | protein stability index [1, 4] | protein stability index [1, 5] | protein stability index [1, 6] | protein stability index [1, 7] | protein stability index [1, 8] | protein stability index [1, 9] | protein stability index [2]
1 | LHLLFLPFVVCL | 0.212 ± 0.017 | 0.2458 ± 0.0015 | 0.216 ± 0.037 | 0.348 ± 0.027 | 0.0556 ± 0.012 | 0.0711 ± 0.025 | 0.113 ± 0.014 | 0.108 ± 0.02
2 | CVARWPRPAGSS | 0.699 ± 0.035 | 0.735 ± 0.047 | 0.655 ± 0.015 | 0.729 ± 0.0097 | 0.641 ± 0.017 | 0.673 ± 0.035 | 0.715 ± 0.015 | 0.723 ± 0.026
3 | VCLLFRFCCWFW | 0.351 ± 0.024 | 0.357 ± 0.0081 | 0.305 ± 0.013 | 0.461 ± 0.02 | 0.331 ± 0.025 | 0.304 ± 0.01 | 0.414 ± 0.03 | 0.371 ± 0.017
4 | GGGVWWGVLVLG | 0.37 ± 0.028 | 0.451 ± 0.064 | 0.31 ± 0.037 | 0.50956 ± 0.00012 | 0.262 ± 0.0072 | 0.309 ± 0.033 | 0.4678 ± 0.0034 | 0.46142 ± 8.8e-05
5 | FVSAFVCLLCLV | 0.58 ± 0.041 | 0.6283 ± 0.006 | 0.509 ± 0.0073 | 0.615 ± 0.0078 | 0.357 ± 0.013 | 0.377 ± 0.016 | 0.4877 ± 0.00084 | 0.4919 ± 0.004
6 | IYFFFFALHFPN | 0.498 ± 0.083 | 0.521 ± 0.013 | 0.366 ± 0.054 | 0.535 ± 0.029 | 0.388 ± 0.019 | 0.407 ± 0.025 | 0.544 ± 0.047 | 0.524 ± 0.067
7 | VSRAVCLWRRLL | 0.479 ± 0.006 | 0.68 ± 0.061 | 0.618 ± 0.0096 | 0.7305 ± 0.0018 | 0.0796 ± 0.0058 | 0.104 ± 0.036 | 0.124 ± 0.026 | 0.0882 ± 0.088
8 | WLSISNLVIACR | 0.0277 ± 0.009 | 0.0619 ± 0.027 | 0.135 ± 0.039 | 0.156 ± 0.013 | 0.0862 ± 0.019 | 0.115 ± 0.025 | 0.127 ± 0.017 | 0.217 ± 0.013
9 | VFCMVLPFVLLT | 0.126 ± 0.018 | 0.0906 ± 0.016 | 0.194 ± 0.024 | 0.2715 ± 0.0011 | 0.1776 ± 0.0015 | 0.136 ± 0.02 | 0.157 ± 0.016 | 0.214 ± 0.035
10 | FSVRLCLFVWGC | 0.399 ± 0.036 | 0.481 ± 0.033 | 0.341 ± 0.028 | 0.4684 ± 0.004 | 0.305 ± 0.0062 | 0.317 ± 0.015 | 0.4483 ± 0.0025 | 0.436 ± 0.1
11 | SYVLLQSYVSLV | 0.566 ± 0.017 | 0.623 ± 0.016 | 0.474 ± 0.0091 | 0.643 ± 0.016 | 0.318 ± 0.016 | 0.352 ± 0.029 | 0.613 ± 0.083 | 0.451 ± 0.021
